Here are results for one molecule from paper PMC6632053 (2019).

Bridge positions count the residues as written; N and C are the ends. Square brackets hold non-standard residues; d marks the D form. Primed or numbered codes have the meaning given here. R8 = C=CCCCCCC[C@@](C)(N)C(=O)O; S5 = C=CCCC[C@](C)(N)C(=O)O; Cba′ = not defined here

In one assay the target is human Mdm2 (1–125) (human). In words: ITC. For orientation: ITC needs no label: the signal is the heat of the interaction.
Assay [1] concerns the target site-specific mono-biotinylated Mdm2 (human, biotin (site-specific, mono, by sortase-mediated ligation; site not stated)). In words: SPR.

site-specific mono-biotinylated Mdm2 (human, biotin (site-specific, mono, by sortase-mediated ligation; site not stated)), sequence (chain, as listed by the source): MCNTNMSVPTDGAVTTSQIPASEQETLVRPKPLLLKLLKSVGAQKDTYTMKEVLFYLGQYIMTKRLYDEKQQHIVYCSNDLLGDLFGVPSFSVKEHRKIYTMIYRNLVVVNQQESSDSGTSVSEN
human Mdm2 (1–125) (human), sequence (chain, as listed by the source): as above

Consider Ac-LTF[R8]EYWQL[Cba′][S5]SAA-NH2 (staple 4-11; reading uncertain) [MP-292], for which the dissociation constant (Kd) with human Mdm2 (1–125) is < 20 nM; in assay [1] it was 1.4 nM.

The term Kd denotes the equilibrium constant for the complex coming apart. Read a low Kd as a tighter complex.
